Experimental data published in FireProtDB (doi:10.1038/nsb0196-54).

Conditions: Escherichia coli; pH 7; Thermal; CD; Sodium phosphate 10 mM; NaCl 350 mM; whole UniProt chain shown

B1: Regulatory protein rop wild type, P03051 (protein)
chain: MTKQEKTALNMARFIRSQTLTLLEKLNELDADEQADICESLHDHADELYRSCLARFGDDGENL
Tm: 68.7 °C
